± gives the standard deviation of the averaged measurements.
Tested on: ATP
Assay: switch fluorescence ratio, 500 uM ATP over buffer (Cy3 cluster intensity, sum of 5 cycles each) (fold (ratio)); higher = stronger signal-on switching upon ATP binding; sequences stand for … in TCGTCGGCAGCGTCAGATGTGTATAAGAGACAGTTTTTTTTTTTTTTTTTTTTTTTTT…TC
Conditions: aptamer strand: ATP DNA aptamer (quencher-CACCTGGGGGAGTATTGCGGAGGAAGG + anchor), 100 nM annealed; ATP concentration: 500 uM
In short: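 Per cluster, summed Cy3 intensity from the target cycles was divided by that from the buffer cycles to give the fluorescence ratio, then averaged per switch-domain sequence. Clusters outside 100-1000 RFU were excluded. The Cy3-labelled switching-strand clusters, on a modified Illumina MiSeq flow-cell, were annealed to 100 nM quencher-labelled ATP aptamer and imaged in selection buffer, then after 15 min with 500 uM ATP at 22 °C, for five cycles with NaOH stripping and re-annealing between them.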
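Also: ATP exposure 15 min at 22 °C before imaging.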

Row | Sequence | switch fluorescence ratio
1 | TAATCACGAA | 1.036 ± 0.0039
2 | TAATCGATAT | 0.9803 ± 0.0026
3 | TAATCGCCAA | 1.05 ± 0.0039
4 | TAATCGCCTG | 0.981 ± 0.034
5 | TAATCGCTAA | 1.13 ± 0.14
6 | TAATCGGGGT | 0.978 ± 0.038
7 | TAATGACGCT | 0.997 ± 0.027
8 | TAATGAGGGA | 1 ± 0.038
9 | TAATGCAGGA | 1.02 ± 0.015
10 | TAATGGAGGG | 0.965 ± 0.047
11 | TAATGGGAAA | 1.04 ± 0.013
12 | TAATGGGACG | 1.08 ± 0.14
13 | TAATGGGGAC | 0.967 ± 0.03
14 | TAATGGGGAG | 0.993 ± 0.014
15 | TAATGGTATG | 0.982 ± 0.039
16 | TAATGGTATT | 0.97547 ± 0.00097
17 | TAATGGTTGC | 0.996 ± 0.014
18 | TAATGGTTTT | 1.02 ± 0.025
19 | TAATGTAACG | 1 ± 0.063
20 | TAATGTAATG | 0.999 ± 0.031
21 | TAATGTGGTA | 0.979 ± 0.056
22 | TAATGTTTGC | 1.01 ± 0.033
23 | TAATTAAATA | 1.04 ± 0.038
24 | TAATTAAGGA | 1.004 ± 0.0096
25 | TAATTAATAG | 0.9971 ± 0.0031
26 | TAATTAATGC | 1.02 ± 0.037

Row | Sequence | switch fluorescence ratio
27 | TAATTAGGGG | 1.06 ± 0.083
28 | TAATTATAGC | 1.05 ± 0.049
29 | TAATTATAGT | 1.01 ± 0.011
30 | TAATTCCCGT | 1.01 ± 0.036
31 | TAATTCGAG | 1.04 ± 0.029
32 | TAATTCGGAT | 2.07 ± 1.8
33 | TAATTCGTTA | 0.992 ± 0.037
34 | TAATTGAGGC | 1.04 ± 0.017
35 | TAATTGCGGT | 1.007 ± 0.0045
36 | TAATTGGAGA | 0.989 ± 0.014
37 | TAATTGGGTT | 1 ± 0.019
38 | TAATTGT | 0.976 ± 0.03
39 | TAATTGTTAT | 0.986 ± 0.024
40 | TAATTTAAGA | 1.01 ± 0.013
41 | TAATTTAATA | 1.02 ± 0.011
42 | TAATTTAGTG | 0.9858 ± 0.0056
43 | TAATTTCTGC | 0.993 ± 0.018
44 | TAATTTGAAC | 1.02 ± 0.043
45 | TAATTTGCAG | 0.9812 ± 0.0076
46 | TAATTTGTCG | 0.982 ± 0.023
47 | TAATTTGTGT | 1.01 ± 0.014
48 | TAATTTTGGT | 0.9847 ± 0.0068
49 | TAATTTTGTT | 1.02 ± 0.019
50 | TAATTTTTTT | 1.01 ± 0.014
51 | TACAACTTTC | 1.08 ± 0.051
52 | TACAAGCTTT | 0.992 ± 0.024

Row | Sequence | switch fluorescence ratio
53 | TACAAGGTCA | 1.01 ± 0.0045
54 | TACAATTTCG | 1.01 ± 0.032
55 | TACACGGGGT | 1.05 ± 0.018
56 | TACACGTTTT | 1.03 ± 0.021
57 | TACAGACCCG | 1.07 ± 0.062
58 | TACAGACGAT | 1.3 ± 0.068
59 | TACAGCAGTA | 1.1 ± 0.14
60 | TACAGCGGAG | 0.999 ± 0.066
61 | TACAGGCGTA | 0.9955 ± 0.0069
62 | TACAGGGGGG | 1 ± 0.027
63 | TACAGGGGTA | 1.05 ± 0.012
64 | TACAGGTGTG | 1.24 ± 0.044
65 | TACAGGTTGG | 1.03 ± 0.037
66 | TACAGGTTTT | 0.972 ± 0.073
67 | TACAGTAGGA | 1.06 ± 0.064
68 | TACAGTCAAC | 1.06 ± 0.041
69 | TACATAGGCA | 1.03 ± 0.035
70 | TACATCATCG | 1.14 ± 0.016
71 | TACATCATGG | 1.04 ± 0.019
72 | TACATGAAGA | 1.02 ± 0.013
73 | TACATGAAGG | 0.995 ± 0.019
74 | TACATGGGTA | 0.9583 ± 0.0072
75 | TACATGGTTT | 1.01 ± 0.032
76 | TACATGTCCG | 1.05 ± 0.064
77 | TACATGTCGG | 1.01 ± 0.0022
78 | TACATTAGGC | 1.05 ± 0.018

Row | Sequence | switch fluorescence ratio
79 | TACATTCGCG | 1.01 ± 0.035
80 | TACATTGGCT | 0.982 ± 0.019
81 | TACATTTGGG | 0.992 ± 0.021
82 | TACCAAAGAA | 1.04 ± 0.026
83 | TACCAATAAG | 1.03 ± 0.044
84 | TACCACGGGT | 1.03 ± 0.018
85 | TACCAGGGTA | 1.05 ± 0.047
86 | TACCATGACC | 1.109 ± 0.0081
87 | TACCATGGTT | 0.9841 ± 0.0061
88 | TACCATTAGT | 1.041 ± 0.0085
89 | TACCCCGGTA | 1.04 ± 0.035
90 | TACCCGCGCG | 1.026 ± 0.003
91 | TACCCGGGTT | 1.11 ± 0.2
92 | TACCGCGGTT | 1.04 ± 0.03
93 | TACCGCGTGG | 1.03 ± 0.017
94 | TACCGCTTGC | 2.01 ± 0.53
95 | TACCGGTGTC | 1.06 ± 0.047
96 | TACCTATTGG | 0.9974 ± 0.0039
97 | TACCTTGGGC | 1.04 ± 0.046
98 | TACCTTTGGG | 1.02 ± 0.032
99 | TACGAAGGGG | 1.02 ± 0.018
100 | TACGAAGTAG | 0.993 ± 0.042
101 | TACGAATCTG | 1.03 ± 0.019
102 | TACGACACCT | 1.73 ± 0.027
103 | TACGATGCTT | 1.2 ± 0.028
104 | TACGCGGGGT | 1.29 ± 0.45

Row | Sequence | switch fluorescence ratio
105 | TACGCTTTTT | 1.02 ± 0.055
106 | TACGGGAACG | 1.06 ± 0.018
107 | TACGGGAGTC | 1.06 ± 0.16
108 | TACGGGCACG | 1.04 ± 0.028
109 | TACGGGCATA | 1.1 ± 0.049
110 | TACGGGCGCG | 0.981 ± 0.017
111 | TACGGGGCCT | 1.04 ± 0.064
112 | TACGGGGG | 1.01 ± 0.071
113 | TACGGGGGCG | 1.01 ± 0.1
114 | TACGGGGGGT | 1.02 ± 0.026
115 | TACGGTAAAA | 0.986 ± 0.044
116 | TACGGTGGGA | 1.0079 ± 0.00053
117 | TACGGTGTGG | 0.989 ± 0.04
118 | TACGGTTACT | 1.27 ± 0.014
119 | TACGGTTGCA | 1.01 ± 0.017
120 | TACGGTTGGC | 0.989 ± 0.023
121 | TACGTCATTA | 1.2 ± 0.012
122 | TACGTCCCCG | 1.03 ± 0.04
123 | TACGTCCCGA | 1.01 ± 0.045
124 | TACGTGCATT | 1.0476 ± 0.00035
125 | TACGTGCCTC | 0.99 ± 0.02
126 | TACGTGGGGG | 1.02 ± 0.029
127 | TACGTGGTGG | 1.05 ± 0.024
128 | TACGTGTGGG | 1.02 ± 0.038
129 | TACGTTGCAA | 1.22 ± 0.015
130 | TACGTTTGCG | 1.01 ± 0.014

Row | Sequence | switch fluorescence ratio
131 | TACGTTTGGG | 0.981 ± 0.031
132 | TACGTTTTTC | 1.003 ± 0.0048
133 | TACTAACATT | 1.14 ± 0.019
134 | TACTAAGGGG | 1.04 ± 0.041
135 | TACTAAGTTG | 1.07 ± 0.055
136 | TACTAATGGA | 1.01 ± 0.041
137 | TACTACAGGG | 1.11 ± 0.013
138 | TACTAGTTGT | 0.99 ± 0.022
139 | TACTCATTGT | 1.03 ± 0.021
140 | TACTCGCCAT | 1.13 ± 0.035
141 | TACTCGCTGG | 1.07 ± 0.036
142 | TACTCGGGCT | 1.017 ± 0.0044
143 | TACTCTAAAA | 1.08 ± 0.022
144 | TACTGACGAA | 1.27 ± 0.11
145 | TACTGATAGG | 1.0161 ± 0.00099
146 | TACTGGGTTC | 0.987 ± 0.047
147 | TACTGGTATG | 1.03 ± 0.037
148 | TACTGGTCCT | 1.03 ± 0.038
149 | TACTGGTGGT | 0.992 ± 0.016
150 | TACTGTGACA | 1.14 ± 0.012
151 | TACTGTGGTC | 1.025 ± 0.0053
152 | TACTGTTATG | 1.1 ± 0.099
153 | TACTTAAGTG | 1.02 ± 0.047

Reference: the supplement of paper PMC10126150
